Experimental data reported in patent US12534541B2, “Anti-PTK7 antibody and uses thereof” (MABCARE THERAPEUTICS, priority 2023, dated 2026).
Where two headings read alike, the source gives them in different places.

How the values were obtained:
[1] = system: refractory ovarian cancer expressing PTK7, triple-negative breast cancer, and NSCLC; details: cited from earlier work
[2] = system: lung squamous cell carcinoma PDX LD1-0025-200615; experiment: In vivo anti-tumor activity against human lung squamous cell carcinoma PDX LD1-0025-200615; details: NU/NU mice, i.v. 5 mg/kg, once a week, 2 doses, vs negative control
Method: (§1) 6-week-old NU/NU mice, female, weighing 18-21 g, were purchased from Beijing Vital River Laboratory Animal Technology Co., Ltd. The mice were subcutaneously inoculated with lung squamous cell carcinoma tumor mass (specimen no. 200615, obtained from Xi'an LIDE Biotech Co. Ltd.). When the average tumor volume reached 150 mm^3, the antibody-drug conjugate Ab13-T1000-exatecan as prepared in Example 5 was administered intravenously at a dose of 10 mg/kg, the antibody-drug conjugate h6M24-vc0101 as prepared in Example 8 was administered intravenously at a dose of 5 mg/kg, and a negative control Vehicle group was set and administered intravenously with PBS at an equal dose, once a week for a total of 2 doses. After dosing, the tumor volume was measured twice a week using a vernier caliper and calculated according to the following formula: TV=(length*width^2)/2.

[3] = system: colorectal cancer PDX LD1-2038-361980; experiment: In vivo anti-tumor activity against human colorectal cancer PDX LD1-2038-361980; details: NU/NU mice, i.v. 5 mg/kg, once a week, 2 doses, vs negative control
Method: as §1, with “colorectal cancer” for “lung squamous cell carcinoma”, “361980,” for “200615,”

[4] = system: triple-negative breast cancer PDX LD1-2009-361918; assay type: in vivo; details: NU/NU mice, i.v. 5 mg/kg, once a week, 2 doses, vs negative control
Method: 6-week-old NU/NU mice, female, weighing 18-21 g, were purchased from Beijing Vital River Laboratory Animal Technology Co., Ltd. The mice were subcutaneously inoculated with triple-negative breast cancer tumor mass (specimen no. 361918, obtained from Xi'an LIDE Biotech Co. Ltd.). […] After dosing, the tumor volume was measured twice a week using a vernier caliper and calculated according to the following formula: TV=(length*width^2)/2.

[5] = system: head and neck squamous cell carcinoma PDX LD1-0023-200615; experiment: In vivo anti-tumor activity against human head and neck squamous cell carcinoma PDX LD1-0023-200615; details: NU/NU mice, i.v. 5 mg/kg, once a week, 2 doses, vs negative control
Method: as §1, with “head and neck” for “lung”

[6] = system: esophageal squamous cell carcinoma PDX LD1-2015-361318; experiment: In vivo anti-tumor activity against human esophageal squamous cell carcinoma PDX LD1-2015-361318; details: NU/NU mice, i.v. 5 mg/kg, once a week, 2 doses, vs negative control
Method: as §1, with “esophageal” for “lung”, “361318,” for “200615,”

[7] = system: cervical squamous cell carcinoma PDX LD1-0010-362343; experiment: In vivo anti-tumor activity against human cervical squamous cell carcinoma PDX LD1-0010-362343; details: NU/NU mice, i.v. 5 mg/kg, once a week, 2 doses, vs negative control
Method: as §1, with “cervical” for “lung”, “362343,” for “200615,”

[8] = system: small cell lung cancer PDX LD1-2025-362797; experiment: In vivo anti-tumor activity against human small cell lung cancer PDX LD1-2025-362797; details: NU/NU mice, i.v. 5 mg/kg, 1 dose, vs negative control
Method: 6-week-old NU/NU mice, female, weighing 18-21 g, were purchased from Beijing Vital River Laboratory Animal Technology Co., Ltd. The mice were subcutaneously inoculated with small cell lung cancer tumor mass (specimen no. 362797, obtained from Xi'an LIDE Biotech Co. Ltd.). When the average tumor volume reached 150 mm^3, the antibody-drug conjugates Ab13-T1000-exatecan and h6M24-T1000-exatecan as prepared in Example 5 were administered intravenously at a dose of 10 mg/kg, respectively, the antibody-drug conjugate h6M24-vc0101 as prepared in Example 8 was administered intravenously at a dose of 5 mg/kg, and a negative control Vehicle group was set and administered intravenously with PBS at an equal dose, once a week for a total of 1 dose. After dosing, the tumor volume was measured twice a week using a vernier caliper and calculated according to the following formula: TV=(length*width^2)/2.

B1: h6M24-vc0101: control drug: h6M24 (cofetuzumab) linked to Aur0101 via mc-VC-PAB linker, DAR about 4 (conjugate, chains of the INN, looked up)
VH: QVQLVQSGPEVKKPGASVKVSCKASGYTFTDYAVHWVRQAPGKRLEWIGVISTYNDYTYNNQDFKGRVTMTRDTSASTAYMELSRLRSEDTAVYYCARGNSYFYALDYWGQGTSVTVSS
VL: EIVLTQSPATLSLSPGERATLSCRASESVDSYGKSFMHWYQQKPGQAPRLLIYRASNLESGIPARFSGSGSGTDFTLTISSLEPEDFAVYYCQQSNEDPWTFGGGTKLEIK
modifications: Aur0101 via mc-VC-PAB linker, DAR 4
dose-limiting toxicity ([1]; highest dose assessed every 3 weeks): Two patients experienced a dose-limiting toxicity (grade 3 headache and fatigue) | objective response rate (ORR) ([1]; patients with NSCLC (6/31 patients)): 19% | objective response rate (ORR) ([1]; patients with refractory ovarian cancer expressing PTK7 (17/63 patients)): 27% | objective response rate (ORR) ([1]; patients with triple-negative breast cancer (6/29 patients)): 21% | tumor growth inhibition (tumor volume over time) [2]: partially inhibit tumor growth | tumor growth inhibition (tumor volume over time) [3]: does not produce any tumor growth inhibitory effect | tumor growth inhibition (tumor volume over time) [4]: does not produce any tumor growth inhibitory effect | tumor growth inhibition (tumor volume over time) [5]: significantly inhibit tumor growth | tumor growth inhibition (tumor volume over time) [6]: partially inhibit tumor growth | tumor growth inhibition (tumor volume over time) [7]: significantly inhibit tumor growth | tumor growth inhibition (tumor volume over time) [8]: does not produce any tumor growth inhibitory effect
